Source: publication PMC5422739, “Leptospira Immunoglobulin-Like Protein B Interacts with the 20th Exon of Human Tropoelastin Contributing to Leptospiral Adhesion to Human Lung Cells” (Frontiers in Cellular and Infection Microbiology, 2017)

Columns and labels:
Settings in all cases: both partners purified
[1] = target: T1, tag free LigB12 (amino acids 1,047–1,119 in LigB) (L. interrogans serovar Pomona); test: SPR; Biacore 3000; tag free LigB12 immobilised on CM5 (about 1,000 RU); HTE truncates 0 to 5 μM injected in PBS at 30 μL/min, 25°C; 1:1 Langmuir model
T1 construct: LigB, 12th Ig-like domain, amino acids 1,047–1,119 in LigB; from pET28-SUMO; also called wild-type LigB12; LigB12 WT; source: E. coli Rosetta, purified (Ni-NTA, Ulp-1 digestion, second Ni-NTA, size exclusion)

[2] = target: T2, GST tagged LigB12 (amino acids 1,047–1,119 in LigB) (L. interrogans serovar Pomona); test: ELISA; HTE17-20, HTE20, HTE20N, HTE20C or BSA coated (1 μM/well); GST tagged LigB4 or LigB12 titrated 0 to 10 μM, 1 h at 37°C; HRP anti-GST; KD from a saturation fit of OD630
T2 construct: LigB, 12th Ig-like domain, amino acids 1,047–1,119 in LigB; constructed into pGEX-6P-1 and pGEX-4T-2; also called GST-LigB12; 12th domain of LigB; source: E. coli Rosetta, purified (glutathione agarose)

[3] = target: T3, GST tagged LigB4 (amino acids 307–403 in LigB) (L. interrogans serovar Pomona); test: as above
T3 construct: Leptospira immunoglobulin-like protein B (LigB), 4th Ig-like domain, amino acids 307–403 in LigB; constructed into pGEX-6P-1 and pGEX-4T-2; also called GST-LigB4; 4th domain of LigB; source: E. coli Rosetta, purified (glutathione agarose)

B1: HTE17-20 (17th to 20th exon of human tropoelastin) (domain or fragment)
chain: GVGTPAAAAAAAAAAKAAKYGAAAGLVPGGPGFGPGVVGVPGAGVPGVGVPGAGIPVVPGAGIPGAAVPGVVSPEAAAKAAAKAAKYGARPGVGVGGIPTYGVGAGGFPGFGVGVGGIPGVAGVPGVGGVPGVGGVPGVGIS
Kd [1]: 850 nM | koff [1]: 0.0011 s⁻¹ | kon [1]: 1300 M⁻¹ s⁻¹ | Kd [2]: 780 nM | Kd [3]: 780 nM
